Assay results published in patent publication US20220372155A1 (LYVGEN BIOPHARMA, published 2022).

Tests used:
[1] = target: T1, Human PD-L1 ECD protein (mouse IgG2a Fc tag) (human, UniProt Q9NZQ7 19-238); test: bridging ELISA, coated CD40 ECD-His, soluble PD-L1 ECD-mFc
T1 construct: extracellular domain; also called recombinant human PD-L1; not shown: mouse IgG2a Fc tag
Method: (§1) Exemplary anti-PD-L1/CD40 bi-specific antibodies were analyzed by ELISA for their simultaneous binding to recombinant human PD-L1 and human CD40. Briefly, Ly090 (human CD40 ECD protein with His tag) was diluted and coated onto an ELISA plate with a volume of 100 μL/well by incubation at 4° C. overnight. The next day, the plate was blocked by PBST-BSA buffer, then serially diluted samples of anti-PD-L1/CD40 bi-specific antibodies were pipetted into appropriate wells at 50 μL/well, and the plate was incubated for 1 h followed by Washing. Human PD-L1 ECD protein (mouse IgG2a Fc tag) was added into the plate at 50 μL/well. After 1-hour incubation at room temperature, HRP-conjugated anti-Mouse IgG, Fc G2a antibody was added into the plate at 100 μL/well. The plate was incubated for 1 hour at room temperature followed by washing. TMB substrate solution was added at 100 μL/well and the color development was stopped by adding 100 uL/well Stop Solution (2N H₂SO₄). Absorbance at 450 nm and 620 nm was read by Tecan F200 Pro plate reader. GraphPad 7.0, “[Agonist] vs. response—Variable slope (four parameters)” was used to plot the binding data and calculate binding EC50 values.

[2] = target: T2, Ly090 (human CD40 ECD protein with His tag) (human, UniProt P25942 21-193); test: as above
T2 construct: extracellular domain; also called human CD40 ECD protein (His tag); recombinant human CD40; not shown: His tag
T2 sequence (P25942 21-193): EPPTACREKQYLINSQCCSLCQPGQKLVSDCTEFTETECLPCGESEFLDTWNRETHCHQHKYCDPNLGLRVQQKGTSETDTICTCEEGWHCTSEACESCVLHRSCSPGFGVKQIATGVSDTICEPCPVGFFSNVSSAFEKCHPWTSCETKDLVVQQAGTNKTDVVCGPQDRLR
Method: as §1

[3] = target: T3, human CD40 expressed on CHO cells (human, UniProt P25942 21-277); test: FACS, CHO cells
T3 construct: whole, on cells; also used for the reporter cells over-expressing human CD40; also called cellular CD40; CHO-CD40 cells
T3 sequence (P25942 21-277): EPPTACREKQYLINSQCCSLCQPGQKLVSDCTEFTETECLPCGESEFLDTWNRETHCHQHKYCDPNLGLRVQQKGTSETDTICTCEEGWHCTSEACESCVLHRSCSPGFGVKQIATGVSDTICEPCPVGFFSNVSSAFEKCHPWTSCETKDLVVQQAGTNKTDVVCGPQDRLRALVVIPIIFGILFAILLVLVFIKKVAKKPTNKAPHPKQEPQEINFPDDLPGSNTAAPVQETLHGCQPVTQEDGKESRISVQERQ

[4] = target: T4, human PD-L1 expressed on CHO cells (human, UniProt Q9NZQ7 19-290); test: FACS, CHO cells
T4 construct: whole, on cells; also used for human PD-L1 on Raji cells in the reporter assay; also called cell surface PD-L1; Raji-PD-L1 cells
T4 sequence (Q9NZQ7 19-290): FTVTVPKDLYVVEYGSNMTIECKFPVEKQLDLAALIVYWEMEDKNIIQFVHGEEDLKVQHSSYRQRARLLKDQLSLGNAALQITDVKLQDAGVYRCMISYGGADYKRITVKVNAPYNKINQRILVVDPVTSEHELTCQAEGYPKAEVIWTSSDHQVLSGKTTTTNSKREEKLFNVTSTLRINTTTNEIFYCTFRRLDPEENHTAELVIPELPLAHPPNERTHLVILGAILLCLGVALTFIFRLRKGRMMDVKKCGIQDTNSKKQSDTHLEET

[5] = target: T5, human PD-1 expressed on CHO cells (human, UniProt Q15116 25-288); test: FACS, CHO cells
T5 construct: whole, on cells; also used for human PD-1 on Jurkat reporter cells; also called Jurkat/NFkB-Luci/PD-1 cells
T5 sequence (Q15116 25-288): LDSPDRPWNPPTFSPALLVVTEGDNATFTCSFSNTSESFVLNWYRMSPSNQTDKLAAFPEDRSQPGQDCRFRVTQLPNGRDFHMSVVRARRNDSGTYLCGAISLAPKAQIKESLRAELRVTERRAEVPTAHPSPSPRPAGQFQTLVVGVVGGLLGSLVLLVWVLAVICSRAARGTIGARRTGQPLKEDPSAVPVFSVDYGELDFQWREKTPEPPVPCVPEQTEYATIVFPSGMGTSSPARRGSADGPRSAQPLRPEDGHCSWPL

[6] = target: T6, Human PD-1-ECD protein (mouse IgG2a Fc tag) (human, UniProt Q15116 25-170); test: bridging ELISA, coated CD40 ECD-His, soluble PD-1 ECD-mFc
T6 construct: extracellular domain; also called soluble human recombinant PD-1; not shown: mouse IgG2a Fc tag
T6 sequence (Q15116 25-170): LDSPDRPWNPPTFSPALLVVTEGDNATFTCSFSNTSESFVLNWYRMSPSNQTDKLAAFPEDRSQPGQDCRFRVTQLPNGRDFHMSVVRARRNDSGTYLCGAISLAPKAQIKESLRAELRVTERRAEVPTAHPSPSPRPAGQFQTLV
Method: (§2) Briefly, human CD40 ECD protein (His tag) was diluted and coated onto an ELISA plate with a volume of […] by incubation at 4° C. overnight. […] After 1-hour incubation at room temperature, HRP-conjugated anti-Mouse IgG (H+L) antibody was added into the plate at 100 μL/well. The plate was incubated for 1 hour at room temperature followed by washing. TMB substrate solution was added at 100 μL/well and the color development was stopped by adding 100 uL/well Stop Solution (2N H2SO4). Absorbance at 450 nm and 620 nm was read by Tecan F200 Pro plate reader. GraphPad 7.0, “[Agonist] vs. response—Variable slope (four parameters)” was used to plot the binding data and calculate binding EC50 values.

[7] = target: T2, Ly090 (human CD40 ECD protein with His …); test: as above
Method: as §2

Measured: binding result

T1 sequence (Q9NZQ7 19-238): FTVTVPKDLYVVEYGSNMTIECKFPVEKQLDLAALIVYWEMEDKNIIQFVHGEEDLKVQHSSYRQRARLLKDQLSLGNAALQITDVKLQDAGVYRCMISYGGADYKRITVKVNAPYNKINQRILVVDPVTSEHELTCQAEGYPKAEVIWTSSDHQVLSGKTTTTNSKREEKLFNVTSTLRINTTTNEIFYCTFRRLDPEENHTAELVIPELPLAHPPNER

B1: Ly301 (bispecific antibody, human IgG1, kappa)
heavy: QVQLVQSGAEVKKPGASVKVSCKASGYTFTDFWMSWVRQAPGQGLEWMGQIYPNTGTTHSNEKFKGRVTMTRDTSTSTVYMELSSLRSEDTAVYYCARSYHISTTPNWFAYWGQGTLVTVSSASTKGPSVFPLAPSSKSTSGGTAALGCLVKDYFPEPVTVSWNSGALTSGVHTFPAVLQSSGLYSLSSVVTVPSSSLGTQTYICNVNHKPSNTKVDKKVEPKSCDKTHTCPPCPAPELLGPSVFLFPPKPKDTLMISRTPEVTCVVVDVSHEDPEVKFNWYVDGVEVHNAKTKPREEQYNSTYRVVSVLTVLHQDWLNGKEYKCKVSNKALPAPIEKTISKAKGQPREPQVYTLPPSREEMTKNQVSLTCLVKGFYPSDIAVEWESNGQPENNYKTTPPVLDSDGSFFLYSKLTVDKSRWQQGNVFSCSVMHEALHNHYTQKSLSLSPGGGGGSGGGGSGGGGSGGGGSDIQMTQSPSSLSASVGDRVTITCKASQNIYIYLNWYQQKPGKAPKLLIYNTNNLQTGVPSRFSGSGSGTDFTLTISSLQPEDFATYYCLQHSSRRTFGGGTKVEIKGGGGSGGGGSGGGGSGGGGSQVQLVESGGGLVQPGGSLKLSCATSGFNFNDYFMNWVRQASGKGLEWVGQIRNKNYNYATYYTESLEGRVTISRDDSKNTAYLQMNSLKTEDTAVYYCTSYYYDGFADYFDYWGQGTTVTVSS
light: DIQMTQSPSSLSASVGDRVTITCKASQNVYKKLEWYQQKPGKVPKVLIYHTNILQTGVPSRFSGSGSGTDYTLTISSLQPEDVATYYCYQWNSGPTFGGGTKVEIKRTVAAPSVFIFPPSDEQLKSGTASVVCLLNNFYPREAKVQWKVDNALQSGNSQESVTEQDSKDSTYSLSSTLTLSKADYEKHKVYACEVTHQGLSSPVTKSFNRGEC
notes: Ly076 HC (IgG1 mutated Fc)-TM740 scFv VL-VH + Ly076 LC
binds: [1] | [2] | [3] | [4]

B2: Ly338 (bispecific antibody, human IgG1, kappa)
heavy: QVQLVQSGAEVKKPGASVKVSCKASGYTFTDFWMSWVRQAPGQGLEWMGQIYPNTGTTHSNEKFKGRVTMTRDTSTSTVYMELSSLRSEDTAVYYCARSYHISTTPNWFAYWGQGTLVTVSSASTKGPSVFPLAPSSKSTSGGTAALGCLVKDYFPEPVTVSWNSGALTSGVHTFPAVLQSSGLYSLSSVVTVPSSSLGTQTYICNVNHKPSNTKVDKKVEPKSCDKTHTCPPCPAPELLGPSVFLFPPKPKDTLMISRTPEVTCVVVDVSHEDPEVKFNWYVDGVEVHNAKTKPREEQYNSTYRVVSVLTVLHQDWLNGKEYKCKVSNKALPAPIEKTISKAKGQPREPQVYTLPPSREEMTKNQVSLTCLVKGFYPSDIAVEWESNGQPENNYKTTPPVLDSDGSFFLYSKLTVDKSRWQQGNVFSCSVMHEALHNHYTQKSLSLSPGGGGGSGGGGSGGGGSGGGGSQVQLVESGGGLVQPGGSLKLSCATSGFNFNDYFMNWVRQASGKGLEWVGQIRNKNYNYATYYTESLEGRVTISRDDSKNTAYLQMNSLKTEDTAVYYCTSYYYDGFADYFDYWGQGTTVTVSSGGGGSGGGGSGGGGSGGGGSDIQMTQSPSSLSASVGDRVTITCKASQNIYIYLNWYQQKPGKAPKLLIYNTNNLQTGVPSRFSGSGSGTDFTLTISSLQPEDFATYYCLQHSSRRTFGGGTKVEIK
light: B1 light
notes: Ly076 HC (IgG1 mutated Fc)-TM740 scFv VH-VL + Ly076 LC
binds: [1] | [2] | [3] | [4]

B3: Ly607 (bispecific antibody, human IgG1, kappa)
heavy: QVTLKESGPALVKPTQTLTLTCTFSGFSLSTSGTCVSWIRQPPGKALEWLATICWEDSKGYNPSLKSRLTISKDTSKNQAVLTMTNMDPVDTATYYCARREDSGYFWFPYWGQGTLVTVSSASTKGPSVFPLAPSSKSTSGGTAALGCLVKDYFPEPVTVSWNSGALTSGVHTFPAVLQSSGLYSLSSVVTVPSSSLGTQTYICNVNHKPSNTKVDKKVEPKSCDKTHTCPPCPAPELLGPSVFLFPPKPKDTLMISRTPEVTCVVVDVSHEDPEVKFNWYVDGVEVHNAKTKPREEQYNSTYRVVSVLTVLHQDWLNGKEYKCKVSNKALPAPIEKTISKAKGQPREPQVYTLPPSREEMTKNQVSLTCLVKGFYPSDIAVEWESNGQPENNYKTTPPVLDSDGSFFLYSKLTVDKSRWQQGNVFSCSVMHEALHNHYTQKSLSLSPGGGGGSGGGGSGGGGSGGGGSQVQLVESGGGLVQPGGSLKLSCATSGFNFNDYFMNWVRQASGKGLEWVGQIRNKNYNYATYYTESLEGRVTISRDDSKNTAYLQMNSLKTEDTAVYYCTSYYYDGFADYFDYWGQGTTVTVSSGGGGSGGGGSGGGGSGGGGSDIQMTQSPSSLSASVGDRVTITCKASQNIYIYLNWYQQKPGKAPKLLIYNTNNLQTGVPSRFSGSGSGTDFTLTISSLQPEDFATYYCLQHSSRRTFGGGTKVEIK
light: NIQMTQSPSSLSASVGDRVTITCKAGQNVNNYLAWYQQKPGKAPKVLIFNANSLQTGVPSRFSGSGSGTDFTLTISSLQPEDFATYYCQQYNSWPTFGGGTKVEIKRTVAAPSVFIFPPSDEQLKSGTASVVCLLNNFYPREAKVQWKVDNALQSGNSQESVTEQDSKDSTYSLSSTLTLSKADYEKHKVYACEVTHQGLSSPVTKSFNRGEC
notes: Ly516 HC (IgG1 mutated Fc)-TM740 scFv VH-VL + Ly516 LC
binds: [5] | [3] | [6] | [7]

B4: Ly608 (bispecific antibody, human IgG1, kappa)
heavy: QVTLKESGPALVKPTQTLTLTCTFSGFSLSTSGTCVSWIRQPPGKALEWLATICWEDSKGYNPSLKSRLTISKDTSKNQAVLTMTNMDPVDTATYYCARREDSGYFWFPYWGQGTLVTVSSASTKGPSVFPLAPSSKSTSGGTAALGCLVKDYFPEPVTVSWNSGALTSGVHTFPAVLQSSGLYSLSSVVTVPSSSLGTQTYICNVNHKPSNTKVDKKVEPKSCDKTHTCPPCPAPELLGPSVFLFPPKPKDTLMISRTPEVTCVVVDVSHEDPEVKFNWYVDGVEVHNAKTKPREEQYNSTYRVVSVLTVLHQDWLNGKEYKCKVSNKALPAPIEKTISKAKGQPREPQVYTLPPSREEMTKNQVSLTCLVKGFYPSDIAVEWESNGQPENNYKTTPPVLDSDGSFFLYSKLTVDKSRWQQGNVFSCSVMHEALHNHYTQKSLSLSPGGGGGSGGGGSGGGGSGGGGSDIQMTQSPSSLSASVGDRVTITCLASEDISNDLAWYQQKPGKAPKLLIYFVDRLLDGVPSRFSGSGSGTDFTLTISSLQPEDFATYYCQQSYKYPPTFGQGTKLEIKGGGGSGGGGSGGGGSGGGGSEVQLVESGGGLVQPGGSLRLSCAASGFTFTNYGLHWVRQAPGKGLEWVSSISPSGGVTYYRDSVKGRFTISRDNSKNTLYLQMNSLRAEDTAVYYCAKPFLGWGGANWIAHWGQGTLVTVSS
light: B3 light
notes: Ly516 HC (IgG1 mutated Fc)-TM559 scFv VL-VH + Ly516 LC
binds: [5] | [3] | [6] | [7]

B5: Ly609 (bispecific antibody, human IgG1, kappa)
heavy: QVTLKESGPALVKPTQTLTLTCTFSGFSLSTSGTCVSWIRQPPGKALEWLATICWEDSKGYNPSLKSRLTISKDTSKNQAVLTMTNMDPVDTATYYCARREDSGYFWFPYWGQGTLVTVSSASTKGPSVFPLAPSSKSTSGGTAALGCLVKDYFPEPVTVSWNSGALTSGVHTFPAVLQSSGLYSLSSVVTVPSSSLGTQTYICNVNHKPSNTKVDKKVEPKSCDKTHTCPPCPAPELLGPSVFLFPPKPKDTLMISRTPEVTCVVVDVSHEDPEVKFNWYVDGVEVHNAKTKPREEQYNSTYRVVSVLTVLHQDWLNGKEYKCKVSNKALPAPIEKTISKAKGQPREPQVYTLPPSREEMTKNQVSLTCLVKGFYPSDIAVEWESNGQPENNYKTTPPVLDSDGSFFLYSKLTVDKSRWQQGNVFSCSVMHEALHNHYTQKSLSLSPGGGGGSGGGGSGGGGSGGGGSEVQLVESGGGLVQPGGSLRLSCAASGFTFTNYGLHWVRQAPGKGLEWVSSISPSGGVTYYRDSVKGRFTISRDNSKNTLYLQMNSLRAEDTAVYYCAKPFLGWGGANWIAHWGQGTLVTVSSGGGGSGGGGSGGGGSGGGGSDIQMTQSPSSLSASVGDRVTITCLASEDISNDLAWYQQKPGKAPKLLIYFVDRLLDGVPSRFSGSGSGTDFTLTISSLQPEDFATYYCQQSYKYPPTFGQGTKLEIK
light: B3 light
notes: Ly516 HC (IgG1 mutated Fc)-TM559 scFv VH-VL + Ly516 LC
binds: [5] | [3] | [6] | [7]
